Measured values from patent publication US20240209076A1.

How the values were obtained:
[1] = molecular target: VEGF (UniProt P15692); test: cell-based or functional assay
[2] = molecular target: VEGF-A165 (UniProt P15692); test: Biacore SPR at 37 C, binder captured on Protein A chip, VEGF-A165 0.19 to 15 nM in five steps, 1:1 Langmuir fit
[3] = molecular target: VEGF-A165 (UniProt P15692); test: SPR (Biacore T200), 37 C, binder captured on a Protein A chip, VEGF-A165 0.19 to 15 nM flowed over, 1:1 Langmuir fit
[4] = molecular target: VEGF-A165 (UniProt P15692); test: Biacore T200 SPR at 37 C, binder captured on Protein A chip, VEGF-A165 0.19 to 15 nM in five steps, 60 min dissociation, 1:1 Langmuir fit

Sequence of Eylea (Fc fusion) (chain): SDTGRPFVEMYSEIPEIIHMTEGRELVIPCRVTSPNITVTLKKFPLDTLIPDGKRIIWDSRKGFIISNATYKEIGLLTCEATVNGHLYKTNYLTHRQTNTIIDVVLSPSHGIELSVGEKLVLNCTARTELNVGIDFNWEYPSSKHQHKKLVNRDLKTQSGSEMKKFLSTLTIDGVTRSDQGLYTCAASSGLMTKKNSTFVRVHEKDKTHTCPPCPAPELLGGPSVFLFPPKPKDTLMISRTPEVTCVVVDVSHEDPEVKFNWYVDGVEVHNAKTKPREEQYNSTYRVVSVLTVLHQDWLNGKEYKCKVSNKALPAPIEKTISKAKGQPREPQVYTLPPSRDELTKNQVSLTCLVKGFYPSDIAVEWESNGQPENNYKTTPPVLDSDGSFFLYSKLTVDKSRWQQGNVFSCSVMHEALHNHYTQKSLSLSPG
Sequence of VEGF-A165 (P15692 other isoform, or with tags, fused parts or gaps limits assumed): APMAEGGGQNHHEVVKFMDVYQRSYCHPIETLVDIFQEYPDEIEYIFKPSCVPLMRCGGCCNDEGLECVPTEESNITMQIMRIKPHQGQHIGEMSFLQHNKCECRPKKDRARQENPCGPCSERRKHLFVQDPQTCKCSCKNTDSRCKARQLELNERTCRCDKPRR
Sequence of VEGF (P15692 other isoform, or with tags, fused parts or gaps limits assumed): as above

cell based VEGF stimulated VEGFR reporter assay, average IC50 [1]: 0.35 nM
Kd [2]: 0.0157 nM
Kd [3]: 0.00622 nM
Kd [4]: 0.00535 nM
Substance: Eylea (Fc fusion)
